According to publication PMC3033571 (2011):

Tests used:
[1] = molecular target: T1, CaV1.2 IQ domain IQ domain (Homo sapiens, UniProt Q13936, Ca2+); assay: ITC, 15°C
[2] = molecular target: T1, CaV1.2 IQ domain IQ domain; assay: ITC, 25°C
[3] = molecular target: T1, CaV1.2 IQ domain IQ domain; assay: competition ITC

T1 sequence (Q13936 1665-1685): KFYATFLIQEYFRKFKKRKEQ

| Binder | Kd [1] [nM] | Kd [2] [nM] | Kd [3] [nM] |
| --- | --- | --- | --- |
| CaBP1 C-lobe C-lobe (protein) ADMIGVKELRDAFREFDTNGDGEISTSELREAMRKLLGHQVGHRDIEEIIRDVDLNGDGRVDFEEFVRMMSR | 10.5 | 15 |  |
| CaBP1 N-lobe N-lobe (protein) not shown | 1100 |  |  |
| CaBP1 16-167 (protein) ARLQRVLGLGSRREPRSLPAGGPAPRRTAPPPPGHASAGPAAMSSHIAKSESKTSLLKAAAAAASGGSRAPRHGPARDPGLPSRRLPGSCPATPQSSGDPSSRRPLCRPAPREEGARGSQRVLPQAHCRPREALPAAASRPSPSSPLPPARG |  |  | 0.288 |
